{
  "source": "patent US9480726B2",
  "about": "“Leukotoxin E/D as a new anti-inflammatory agent and microbicide” (New York University, priority 2011, dated 2016)",
  "molecules": {"B1": {"name": "MIP-1β: natural ligand (chemokine) of CCR5 (protein)", "chain": "APMGSDPPTACCFSYTARKLPRNFVVDYYETSSLCSQPAVVFQTKRSKQVCADPSESWVQEYVYDLELN"}},
  "key": {"CCR5^+ Jurkat cells [1]": {"test_system": "CCR5^+ Jurkat cells", "assay": "Blocking of LukE/D cytotoxicity by CCR5 antagonists, antibodies and ligands, CellTiter", "type": "cell-based, human", "settings": "CCR5^+ Jurkat preincubated 30 minutes, then LukE/D, read 1 hour post-intoxication", "experimental": "One hour post-intoxication, the viability of the cells was determined by CellTiter. […] One hour post-intoxication, the viability of the cells was determined by CellTiter. Results represent the average of triplicate samples±S.D.\nTo determine if targeting CCR5 blocks LukE/D, the effect of several CCR5 antagonist and ligands on the ability of LukE/D to kill CCR5^+ cells was evaluated. […] In addition, the potential of monoclonal antibodies directed against CCR5 to protect cells from LukE/D cytotoxicity was also evaluated following the experimental protocol described for the CCR5 antagonist. […] Lastly, the potential inhibitory effect of natural ligands of CCR5 was also evaluated. […] Collectively, these findings indicate that the potent cytotoxic activity of LukE/D could be blocked by employing CCR5 antagonist and/or ligands."}, "[2]": {"test_system": "primary human dendritic cells", "assay": "LukE/D cytotoxicity towards primary phagocytes, percent death by flow cytometry", "settings": "1 hour post-intoxication", "experimental": "(§1) Cells were then stained with an anti-CCR5 antibody and a viability dye prior analysis by flow cytometry. […] One hour post-intoxication, the percent death was determined by flow cytometry.\n(§2) In addition to T lymphocytes, the cytotoxic activity of LukE/D towards primary human macrophages and dendritic cells was also evaluated."}, "[3]": {"test_system": "primary human macrophages", "assay": "LukE/D cytotoxicity towards primary phagocytes, percent death by flow cytometry", "settings": "1 hour post-intoxication", "experimental": "as §1, §2"}, "CCR5^+ Jurkat cells [4]": {"test_system": "CCR5^+ Jurkat cells", "assay": "Binding of GFP-fused LukE/D toxin to plasma membrane, flow cytometry", "design": "species or system human", "protocol": "(§6) To elucidate the mechanism by which LukE/D utilizes CCR5 to target and kill host cells, Jurkat (CCR5^−) and CCR5^+ Jurkat (CCR5^+) cells were incubated with a GFP-fused LukE/D toxin (^GFPLukE/D) and binding of the fluorescent toxin to the plasma membrane of the cells monitored by flow cytometry."}, "CCR5^+ Jurkat cells [5]": {"test_system": "CCR5^+ Jurkat cells", "assay": "LukE/D pore formation, ethidium bromide incorporation and microscopy", "type": "cell-based, human", "experimental": "Binding of the toxin to the plasma membrane of the cells was monitored via flow cytometry. […] Pore formation was measured over-time by monitoring ethidium bromide incorporation. […] Intoxicated cells were monitored by light (top panels) and by fluorescence microscopy to determine ethidium bromide uptake. Representative images are shown."}, "[6]": {"test_system": "THP1 cells (human monocytes)", "assay": "LukE/D cytotoxicity, cell viability by CellTiter", "type": "cell-based", "settings": "1 hour post-intoxication", "experimental": "(§3) Cytotoxicity was determined by a cell viability assay where indicated human immune cells lines were intoxicated with different concentrations of an equimolar mixture of LukE+LukD (LukE/D). Cell viability was monitored 1 hour post-intoxication using CellTiter, where cells treated with medium were set at 100% viable. Results represent the average of triplicate samples±S.D. FIG. 2B depicts that LukE/D kills Hut cell but not other human T lymphocyte-like cell lines. Indicated cell lines were intoxicated with different concentrations of an equimolar mixture of LukE+LukD (LukE/D) and cell viability monitored as in FIG. 2A. Results represent the average of triplicate samples±S.D.\n(§4) One mechanism by which LukE/D could be blocked is by inhibiting the interaction of the toxin with its receptor. As an initial strategy to understand how LukE/D interact with host cells, a collection of human immune cell lines were incubated (“intoxicated”) with different concentrations of either individual subunits (i.e., LukE or LukD) or an equimolar mixture of LukE+LukD (LukE/D). […] Upon further investigation, it was discovered that the Hut cells employed the experiments described above have been engineered to over-express the CC-chemokine receptor 5 (CCR5), a receptor for the chemokines MIP-1α, MIP-1β, and RANTES."}, "H9": {"test_system": "H9", "assay": "LukE/D cytotoxicity, cell viability by CellTiter", "type": "cell-based, human", "settings": "H9 lymphocyte cell line", "experimental": "as §3, §4"}, "[7]": {"test_system": "Hut cells (T lymphocyte-like cells)", "assay": "LukE/D cytotoxicity, cell viability by CellTiter", "type": "cell-based, human", "settings": "Hut cells (over-express CCR5), 1 hour post-intoxication", "experimental": "as §3, §4"}, "Jurkat cells": {"test_system": "Jurkat cells", "assay": "LukE/D cytotoxicity, cell viability by CellTiter", "type": "cell-based, human", "settings": "1 hour post-intoxication", "experimental": "as §3, §4"}, "PM1": {"test_system": "PM1", "assay": "LukE/D cytotoxicity, cell viability by CellTiter", "type": "cell-based, human", "settings": "PM1 lymphocyte cell line", "experimental": "as §3, §4"}, "CCR5^+ Jurkat": {"test_system": "CCR5^+ Jurkat", "assay": "LukE/D cytotoxicity towards CCR5-transduced cells, CellTiter", "type": "cell-based, human", "settings": "Jurkat transduced with CCR5 cDNA, 1 hour post-intoxication", "text": "FIG. 3 illustrates that the chemokine receptor CCR5 is necessary and sufficient to renders mammalian cells susceptible to LukE/D mediated cytotoxicity. Parental Jurkat (top, left) and GHOST cells (bottom, left) or these cells transduced with a CCR5 cDNA (Jurkat CCR5^+, top/right; GHOST CCR5^+, bottom/right), were intoxicated with LukE, LukD, or equimolar mixture of LukE+LukD (LukE/D). One hour post-intoxication cell viability was monitored with CellTiter, where cells treated with medium were set at 100% viable. Results represent the average of triplicate samples±S.D.\nTo directly determine the contribution of CCR5 for the ability of LukE/D to target and kill host cells, CCR5 was introduced into Jurkat cells by viral transduction of the CCR5 cDNA resulting in CCR5^+ Jurkat. Jurkat and CCR5^+ Jurkat cells were subsequently intoxicated with different concentrations of either individual subunits (i.e., LukE or LukD) or equimolar mixtures of LukE+LukD (LukE/D)."}, "[8]": {"test_system": "parental CCR5^− Jurkat cells", "assay": "Binding of GFP-fused LukE/D toxin to plasma membrane, flow cytometry", "design": "species or system human", "protocol": "as §6"}, "[9]": {"test_system": "Primary human T lymphocytes from CCR5^+ donor", "assay": "LukE/D intoxication of primary T lymphocytes, viability by flow cytometry", "type": "cell-based", "settings": "5.4% in media treated cells", "experimental": "as §1\n(§5) If CCR5 is the receptor of LukE/D, then primary host cells that their surfaces are decorated with CCR5 (e.g., T lymphocytes, macrophages, natural killer cells, dendritic cells, etc.) will be susceptible to LukE/D mediated cell death. To investigate this in more detail, primary human peripheral blood mononuclear cells (PBMC) were isolated from a wild type CCR5 (CCR5^+) donor and a Δ32CCR5 (CCR5^−) donor and the T lymphocytes expanded followed by intoxication with LukE/D and the viability of the cells determined by flow cytometry."}, "[10]": {"test_system": "T lymphocytes from the Δ32CCR5 donor", "assay": "LukE/D intoxication of primary T lymphocytes, viability by flow cytometry", "settings": "T lymphocytes of Δ32CCR5 (CCR5^−) donor", "experimental": "as §1, §5"}},
  "data": [
    {"molecule": "RANTES: natural ligand (chemokine) of CCR5", "values": [
      {"measurement": "blocking of LukE/D mediated cytotoxicity", "setting": "CCR5^+ Jurkat cells [1]", "result": "potently inhibit"}
    ]},
    {"molecule": "Cc1ccc(-c2ccc3c(c2)C=C(C(=O)Nc2ccc(C[N+](C)(C)C4CCOCC4)cc2)CCC3)cc1.[Cl-]", "note": "[TAK-779]", "values": [
      {"measurement": "blocking of LukE/D mediated cytotoxicity", "setting": "CCR5^+ Jurkat cells [1]", "result": "potently blocked"}
    ]},
    {"molecule": "LukD: S. aureus Leukocidin D protein subunit, SEQ ID NOs: 12-22", "values": [
      {"measurement": "cytotoxic activity (killing)", "setting": "[2]", "result": "not LukD potently killed"},
      {"measurement": "cytotoxic activity (killing)", "setting": "[3]", "result": "not LukD potently killed"}
    ]},
    {"molecule": "Maraviroc [reference compound]", "values": [
      {"measurement": "inhibition of LukE/D binding to cells", "setting": "CCR5^+ Jurkat cells [4]; CCR5^+ Jurkat pre-incubated with Maraviroc, then GFP-labeled LukE/D", "result": "potently inhibited"},
      {"measurement": "blocking of LukE/D mediated pore formation", "setting": "CCR5^+ Jurkat cells [5]; pre-incubation with Maraviroc, ethidium bromide incorporation", "result": "potently blocked"},
      {"measurement": "blocking of LukE/D cell swelling", "setting": "CCR5^+ Jurkat cells [5]; pre-incubation with Maraviroc, microscopy", "result": "fully blocked"}
    ]},
    {"molecule": "LukE/D", "values": [
      {"measurement": "cytotoxicity", "setting": "[6]", "result": "exhibits cytotoxicity"},
      {"measurement": "cytotoxicity", "setting": "H9", "result": "only the Hut cells were susceptible"},
      {"measurement": "cytotoxicity", "setting": "[7]", "result": "exhibits cytotoxicity"},
      {"measurement": "cytotoxicity", "setting": "Jurkat cells", "result": "not towards Jurkat cells"},
      {"measurement": "cytotoxicity", "setting": "PM1", "result": "only the Hut cells were susceptible"},
      {"measurement": "LukE/D mediated toxicity", "setting": "CCR5^+ Jurkat", "result": "susceptible"},
      {"measurement": "binding of toxin to plasma membrane", "setting": "CCR5^+ Jurkat cells [4]; GFP-fused LukE/D, CCR5^+ Jurkat", "result": "binds"},
      {"measurement": "binding of toxin to plasma membrane", "setting": "[8]", "result": "not to the parental CCR5^− Jurkat cells"},
      {"measurement": "pore formation in plasma membrane", "setting": "CCR5^+ Jurkat cells [5]; ethidium bromide incorporation over time", "result": "forms pores"},
      {"measurement": "cell swelling", "setting": "CCR5^+ Jurkat cells [5]; light and fluorescence microscopy", "result": "associated with cell swelling"},
      {"measurement": "cell death", "setting": "[9]", "result": 34, "unit": "%"},
      {"measurement": "LukE/D mediated cytotoxicity", "setting": "[10]", "result": "highly refractory"},
      {"measurement": "cytotoxic activity (killing)", "setting": "[2]", "result": "potently killed"},
      {"measurement": "cytotoxic activity (killing)", "setting": "[3]", "result": "potently killed"}
    ]},
    {"molecule": "COC[C@@H](c1ccc(C(F)(F)F)cc1)N1CCN(C2(C)CCN(C(=O)c3c(C)ncnc3C)CC2)C[C@@H]1C", "note": "[Vicriviroc]", "values": [
      {"measurement": "blocking of LukE/D mediated cytotoxicity", "setting": "CCR5^+ Jurkat cells [1]", "result": "potently blocked"}
    ]},
    {"molecule": "B1", "values": [
      {"measurement": "blocking of LukE/D mediated cytotoxicity", "setting": "CCR5^+ Jurkat cells [1]", "result": "potently inhibit"}
    ]}
  ]
}
